According to the supplement of paper PMC9112550, “Optimization of the antimicrobial peptide Bac7 by deep mutational scanning” (BMC Biology, 2022):

System: Escherichia coli TOP10
Experiment: shrunken log2 fold change of peptide-encoding DNA abundance (4.5 h post-induction vs induction); higher = less antimicrobial activity (less host growth inhibition)
Settings: time post-induction: 4.5 h; library: site-saturation at positions 5, 18, 19, 20
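Further: peptides expressed intracellularly from a pBAD plasmid library in pooled LB shake-flask culture, induced with 0.3% L-arabinose, DNA abundance read by NGS, three biological replicates, DESeq2 with apeglm shrinkage.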

Q: How did the “shrunken log2 fold change” value turn out when RRIRYRPPRLPRPRPRPPYSPRP was run?
A: Its value is -0.45.

Q: RRIRVRPPRLPRPRPRPMYQPRP was tested. Which “shrunken log2 fold change” value did it give?
A: The value was -0.342.

Q: How did the “shrunken log2 fold change” value turn out when RRIRKRPPRLPRPRPRPEGAPRP was run?
A: The value was 1.54.

Q: Which “shrunken log2 fold change” value does the source give for RRIRPRPPRLPRPRPRPCIAPRP here?
A: The value was 0.00774.

Q: With RRIRDRPPRLPRPRPRPPMYPRP as the sequence, how does the “shrunken log2 fold change” value read?
A: Its value is -0.405.

Q: With RRIRTRPPRLPRPRPRPPFLPRP as the sequence, how does the “shrunken log2 fold change” value read?
A: The value was 0.207.

Q: Which “shrunken log2 fold change” value does the source give for RRIRLRPPRLPRPRPRPEEDPRP here?
A: The value was -0.00133.

Q: For RRIRQRPPRLPRPRPRPEYIPRP, which “shrunken log2 fold change” value is on record?
A: The value was -0.00306.

Q: How did the “shrunken log2 fold change” value turn out when RRIRQRPPRLPRPRPRPRIEPRP was run?
A: The value was 0.111.

Q: With RRIRFRPPRLPRPRPRPRFDPRP as the sequence, how does the “shrunken log2 fold change” value read?
A: The value was -0.248.

Q: Which “shrunken log2 fold change” value does the source give for RRIRIRPPRLPRPRPRPMHWPRP here?
A: Its value is -0.194.

Q: Which “shrunken log2 fold change” value does the source give for RRIRVRPPRLPRPRPRPVNQPRP here?
A: Its value is -0.0283.

Q: RRIRRRPPRLPRPRPRPKFDPRP was tested. Which “shrunken log2 fold change” value did it give?
A: The value was 0.101.

Q: Which “shrunken log2 fold change” value does the source give for RRIRVRPPRLPRPRPRPIYWPRP here?
A: Its value is -0.0757.

Q: With RRIRMRPPRLPRPRPRPAHKPRP as the sequence, how does the “shrunken log2 fold change” value read?
A: The value was 0.534.

Q: Which “shrunken log2 fold change” value does the source give for RRIRFRPPRLPRPRPRPHCKPRP here?
A: Its value is -0.112.

Q: How did the “shrunken log2 fold change” value turn out when RRIRQRPPRLPRPRPRPAPRPRP was run?
A: Its value is 0.966.

Q: How did the “shrunken log2 fold change” value turn out when RRIRYRPPRLPRPRPRPGWGPRP was run?
A: The value was -0.13.

Q: With RRIRDRPPRLPRPRPRPPKMPRP as the sequence, how does the “shrunken log2 fold change” value read?
A: The value was 0.166.

Q: How did the “shrunken log2 fold change” value turn out when RRIRARPPRLPRPRPRPFYFPRP was run?
A: The value was 0.00316.

Q: With RRIRERPPRLPRPRPRPLRSPRP as the sequence, how does the “shrunken log2 fold change” value read?
A: Its value is 0.474.

Q: With RRIRCRPPRLPRPRPRPCEEPRP as the sequence, how does the “shrunken log2 fold change” value read?
A: Its value is 0.207.

Q: How did the “shrunken log2 fold change” value turn out when RRIRHRPPRLPRPRPRPINCPRP was run?
A: Its value is 0.00172.

Q: For RRIRDRPPRLPRPRPRPQAPPRP, which “shrunken log2 fold change” value is on record?
A: The value was -0.0631.

Q: How did the “shrunken log2 fold change” value turn out when RRIRLRPPRLPRPRPRPGGMPRP was run?
A: The value was -0.16.

Q: With RRIRCRPPRLPRPRPRPCWVPRP as the sequence, how does the “shrunken log2 fold change” value read?
A: The value was -0.4.

Q: How did the “shrunken log2 fold change” value turn out when RRIRQRPPRLPRPRPRPMSFPRP was run?
A: The value was 0.0381.

Q: RRIRNRPPRLPRPRPRPSIWPRP was tested. Which “shrunken log2 fold change” value did it give?
A: The value was -0.474.

Q: Which “shrunken log2 fold change” value does the source give for RRIRTRPPRLPRPRPRPTKMPRP here?
A: The value was -0.355.

Q: For RRIRDRPPRLPRPRPRPLPSPRP, which “shrunken log2 fold change” value is on record?
A: The value was -0.0341.

Q: Which “shrunken log2 fold change” value does the source give for RRIRFRPPRLPRPRPRPIITPRP here?
A: The value was -0.5.

Q: RRIRQRPPRLPRPRPRPGCFPRP was tested. Which “shrunken log2 fold change” value did it give?
A: The value was 0.0403.

Q: With RRIRLRPPRLPRPRPRPWCDPRP as the sequence, how does the “shrunken log2 fold change” value read?
A: The value was -0.437.

Q: With RRIRSRPPRLPRPRPRPPCIPRP as the sequence, how does the “shrunken log2 fold change” value read?
A: The value was -0.105.

Q: RRIRPRPPRLPRPRPRPMCFPRP was tested. Which “shrunken log2 fold change” value did it give?
A: Its value is -0.405.

Q: How did the “shrunken log2 fold change” value turn out when RRIRKRPPRLPRPRPRPYEFPRP was run?
A: Its value is 0.101.

Q: For RRIRWRPPRLPRPRPRPTILPRP, which “shrunken log2 fold change” value is on record?
A: The value was 0.0395.

Q: Which “shrunken log2 fold change” value does the source give for RRIRKRPPRLPRPRPRPMFFPRP here?
A: The value was -0.14.

Q: How did the “shrunken log2 fold change” value turn out when RRIRCRPPRLPRPRPRPYYTPRP was run?
A: The value was 0.00417.

Q: Which “shrunken log2 fold change” value does the source give for RRIRARPPRLPRPRPRPSNWPRP here?
A: The value was 0.253.

Q: How did the “shrunken log2 fold change” value turn out when RRIRHRPPRLPRPRPRPVNTPRP was run?
A: Its value is -0.18.

Q: How did the “shrunken log2 fold change” value turn out when RRIRQRPPRLPRPRPRPWHEPRP was run?
A: The value was -0.00567.

Q: How did the “shrunken log2 fold change” value turn out when RRIRHRPPRLPRPRPRPDCHPRP was run?
A: Its value is 0.0149.

Q: With RRIRDRPPRLPRPRPRPYVPPRP as the sequence, how does the “shrunken log2 fold change” value read?
A: Its value is -0.604.

Q: For RRIRTRPPRLPRPRPRPLESPRP, which “shrunken log2 fold change” value is on record?
A: Its value is -0.0663.

Q: RRIRIRPPRLPRPRPRPLQWPRP was tested. Which “shrunken log2 fold change” value did it give?
A: The value was -0.013.

Q: With RRIRERPPRLPRPRPRPARDPRP as the sequence, how does the “shrunken log2 fold change” value read?
A: Its value is 0.19.

Q: RRIRSRPPRLPRPRPRPLVWPRP was tested. Which “shrunken log2 fold change” value did it give?
A: The value was 0.272.

Q: How did the “shrunken log2 fold change” value turn out when RRIRCRPPRLPRPRPRPQLRPRP was run?
A: Its value is -0.127.

Q: How did the “shrunken log2 fold change” value turn out when RRIRLRPPRLPRPRPRPDIAPRP was run?
A: Its value is 0.024.

Q: For RRIRSRPPRLPRPRPRPLVLPRP, which “shrunken log2 fold change” value is on record?
A: Its value is -0.233.

Q: For RRIRCRPPRLPRPRPRPVHCPRP, which “shrunken log2 fold change” value is on record?
A: Its value is 0.0148.

Q: With RRIRSRPPRLPRPRPRPLMLPRP as the sequence, how does the “shrunken log2 fold change” value read?
A: Its value is -0.581.

Q: RRIRTRPPRLPRPRPRPYCSPRP was tested. Which “shrunken log2 fold change” value did it give?
A: Its value is -0.858.

Q: Which “shrunken log2 fold change” value does the source give for RRIRKRPPRLPRPRPRPDTQPRP here?
A: Its value is 0.202.

Q: RRIRNRPPRLPRPRPRPWVDPRP was tested. Which “shrunken log2 fold change” value did it give?
A: Its value is -0.00748.

Q: Which “shrunken log2 fold change” value does the source give for RRIRVRPPRLPRPRPRPIQKPRP here?
A: Its value is -0.017.

Q: RRIRPRPPRLPRPRPRPHDHPRP was tested. Which “shrunken log2 fold change” value did it give?
A: Its value is 0.0287.

Q: Which “shrunken log2 fold change” value does the source give for RRIRRRPPRLPRPRPRPLNSPRP here?
A: The value was 0.134.

Q: For RRIRTRPPRLPRPRPRPKMEPRP, which “shrunken log2 fold change” value is on record?
A: Its value is -0.0203.

Q: RRIRHRPPRLPRPRPRPRPWPRP was tested. Which “shrunken log2 fold change” value did it give?
A: Its value is 0.0732.

Q: How did the “shrunken log2 fold change” value turn out when RRIRHRPPRLPRPRPRPRVYPRP was run?
A: The value was -0.0307.

Q: RRIRIRPPRLPRPRPRPEGVPRP was tested. Which “shrunken log2 fold change” value did it give?
A: The value was 0.115.

Q: RRIRPRPPRLPRPRPRPIPDPRP was tested. Which “shrunken log2 fold change” value did it give?
A: The value was 0.0469.

Q: How did the “shrunken log2 fold change” value turn out when RRIRGRPPRLPRPRPRPLLLPRP was run?
A: The value was 0.607.

Q: Which “shrunken log2 fold change” value does the source give for RRIRPRPPRLPRPRPRPTYDPRP here?
A: Its value is -0.212.

Q: RRIRSRPPRLPRPRPRPRCCPRP was tested. Which “shrunken log2 fold change” value did it give?
A: Its value is -0.00537.

Q: How did the “shrunken log2 fold change” value turn out when RRIRQRPPRLPRPRPRPSWSPRP was run?
A: The value was -0.185.

Q: How did the “shrunken log2 fold change” value turn out when RRIRFRPPRLPRPRPRPLEQPRP was run?
A: Its value is 0.0789.

Q: RRIRPRPPRLPRPRPRPIRHPRP was tested. Which “shrunken log2 fold change” value did it give?
A: The value was -0.146.

Q: How did the “shrunken log2 fold change” value turn out when RRIRKRPPRLPRPRPRPPFMPRP was run?
A: The value was 0.517.

Q: For RRIRGRPPRLPRPRPRPSIWPRP, which “shrunken log2 fold change” value is on record?
A: The value was 0.511.

Q: RRIRYRPPRLPRPRPRPPDSPRP was tested. Which “shrunken log2 fold change” value did it give?
A: The value was -0.0664.

Q: How did the “shrunken log2 fold change” value turn out when RRIRARPPRLPRPRPRPQYHPRP was run?
A: The value was -0.398.

Q: RRIRHRPPRLPRPRPRPLRGPRP was tested. Which “shrunken log2 fold change” value did it give?
A: The value was 1.02.
